Values of other authors in US12420014B2, “Dosing of incretin pathway drugs” (Closed Loop Medicine Ltd., priority 2023, dated 2025).

How the values were obtained:
[1] = subcutaneous administration, patient study data
[2] = PK studies
[3] = all adverse effects, nausea, vomiting; FIG. 13 [1]
[4] = for a given plasma level; FIG. 2B [2]

semaglutide
higher clearance observed in patients with Type 2 diabetes [1]: 12%
dependence of plasma concentration on other co-medications [2]: do not show a significant dependence
plasma level below which side effects reduce [3]: less than 50 nmol/L
HbA1c reduction at high starting HbA1c (>8.7%) relative to lower starting levels (<7.4%) [4]: 3 fold
